Assay results as given in doi:10.1101/2025.01.13.632879.

Legend:
Experiment in all cases: SEC
[1] = target: Clostridioides difficile GerS K71R, His6-tagged (Clostridioides difficile)
[2] = target: Clostridioides difficile GerS T72P, His6-tagged (Clostridioides difficile)
[3] = target: Clostridioides difficile GerS, His6-tagged (wild type) (Clostridioides difficile)
[4] = target: GerS ortholog from Paraclostridium bifermentans, His6-tagged (Paraclostridium bifermentans)
[5] = target: Clostridioides difficile GerS N74L, His6-tagged (Clostridioides difficile)
[6] = target: GerS ortholog from Paraclostridium sordellii, His6-tagged (Paraclostridium sordellii)

Work on “Clostridioides difficile GerS K71R, His6-tagged (natural protein)” yielded a stoichiometry N [1] of 2.

“Clostridioides difficile GerS T72P, His6-tagged (natural protein)” gave a stoichiometry N [2] of 2.

In the case of “Clostridioides difficile GerS, His6-tagged (wild type) (natural protein)”, the stoichiometry N [3] is reported as 2.

With “GerS ortholog from Paraclostridium bifermentans, His6-tagged (natural protein)” the stoichiometry N [4] was 2.

For “Clostridioides difficile GerS N74L, His6-tagged (natural protein)”, the stoichiometry N [5] was 2.

“GerS ortholog from Paraclostridium sordellii, His6-tagged (natural protein)” was tested, and the stoichiometry N [6] was 2.
